For assay [1], the system named is hematopoietic progenitor cells. In words: Hematopoietic progenitor clonogenic assays (CFU-GEMM, BFU-e, CFU-GM). The note with it: for Pro-hematopoiesis in vitro Enhancement: relative increase of hematopoietic colony cell number, hCG preparations 200 IU/ml, subunits and peptides 100 μg/ml. The class given is cell-based, human. As to the method:
The effect of hCG preparations and peptides was assayed on hematopoietic progenitor cells in vitro: Hematopoietic progenitor cells (2×10^5 cell/ml) were isolated from normal bone marrow and cord blood and seeded in methylcellulose. […] The hCG preparations were administered at 200 IU/ml and the β- and α-subunits and peptides were administered at 100 μg/ml. The native commercial preparation of hCG (APL™, Wyeth Ayerst) was pre-tested for anti-HIV and anti-KS activities. Aggregates containing more than 50 cells after 10 days of culture were counted as colonies.

The subject of another assay is HIV-1. The following applies: for HIV in vitro Inhibition: inhibition of HIV-1 replication in vitro (HIV-1 strains and HIV-1 primary isolates). The text has this:
To prepare HIV infected cells for the in vitro assay of hCG preparations and β-hCG peptides and derivatives, primary PBMCs, macrophages, and CD4^+ T cells isolated from peripheral blood and the H9 human T cell line, were acutely or chronically infected with 8 different HIV-1 strains: 4 cell line adapted viruses, namely the macrophage tropic Ba-L strain (Gartner et al., 1986, Science 233:215-219) and the CD4^+ T cell tropic MN, RF, and IIIB strains (10^5 TCID50/ml) (Popovic et al., 1984, Science […]; Gallo et al.; 1984, Science 224:500-503); 2 isolates, Ju1083 and G3, from Nigerian AIDS patients passed once in a CD4^+ T cell line (Sub-T1); and 2 primary (“clinical”) isolates from AIDS patients from Trinidad which were never passed in any cell line and were used at a titer of 7.5×10^4TCID50/ml. In all experiments; HIV1 (10^5 TCID50/ml) was added to the cells(10^6 cells/ml) for a 2 hour incubation after which the virus infected cells were washed with 10 ml phosphate buffered saline (PBS) three times to eliminate extra cellular virus. The test inhibitor, i.e. the hCG or β-hCG peptide preparation was then added and the cells were incubated with the test inhibiter for 9 to 10 days with serial sampling. Cultures were assayed for p24 antigen on days 3 to 10.
Peptides of the α- and β-subunits (0.05 to 50 nmoles/ml), native α chain preparation, and various crude preparations of the native hCG heterodimer (0.01 to 1,000 IU) and the native β-hCG subunit (100 to 1,000 μg) were tested for effects on HIV-1 replication in acutely infected cells-by measuring change in viral antigen levels in response to the above noted preparations (FIGS. 4A-D and Table 3).
The fractions were then tested for anti-HIV, anti-KS and pro-hematopoietic activities in vitro. To assay for inhibition of HIV-1 replication in vitro, the HIV-1 […] viral strain was used to infect PBMCs and PM-1 cells (derived from the HUT-78 T-cell lymphoma cell line) at 10^3 TCID50/ml as described in detail herein.

A further assay relates to KS Y-1 and KS-SLK cells. The experiment in a line: Kaposi's Sarcoma clonogenic assay in cultured cells. In kind it is cell-based, human. The following applies: for KS in vitro: inhibition of Kaposi's Sarcoma cell growth in vitro in cultured cells. The method, then:
Briefly, the KS Y-1 cells were obtained from mononuclear cells isolated from pleural effusion of an AIDS patient with KS in the lungs. After the depletion of T lymphocytes, monocytes/macrophages and fibroblasts using monoclonal antibodies against CD2, CD3, CD4, CD8, CD10 and CD14 membrane antigens and baby rabbit complement, the cells were cultured in the absence of exogenous growth factors to select for transformed cells. […] Clonogenic assays were performed by seeding the KS Y-1 or KS-SLK cells in methylcellulose (0.8%, v/v), incubating the cells for 10 days in the presence or absence of the hCC, β-hCG or β-hCG peptide preparations and then counting the number of well-formed colonies of triplicate wells formed after seeding with 5×10^4 cells.
To assay for activity against Kaposi's sarcoma cell growth in vitro, the clonogenic assay described herein was used with the KS Y-1 and KS-SLK cultured Kaposi's Sarcoma cell lines,.

A further assay has as its system HIV-1 transgenic mice. In words: Survival, growth and weight of HIV-1 transgenic mouse pups. In kind it is in vivo. The following applies: administered first 5 days after birth through mothers milk. The method, then: (§1) The HIV-1 transgenic mice used for this study contain 7.4 kb of foreign DNA, including 5.1 kb of the HIV-1 proviral genome deleted in the gag and pol genes and 2.3 kb of vector (Dickie et al., 1991, Virology 185:109-119). […] In addition, these mice develop severe hyperkeratotic skin lesions with marked expression of gp 120 and nef genes (Kopp et al., 1993, AIDS Res. Hum. Retroviruses 9:267-275; Vasli et al., 1994, AIDS Res. Hum. Retroviruses 10:1241-1250).
Finally, certain fractions were tested for their ability to increase survival, promote weight gain and reduce HIV-1 gene expression in HIV-1 transgenic mice as described herein.
HIV-I transgenic pups administered hCG and hCG-related preparations for the first 5 days after birth through the mothers milk were monitored for survival at 10 days after birth.

Assay [2] concerns HIV RNA and protein expression. The experiment in a line: HIV RNA and protein expression in HIV-1 transgenic mice. The class given is in vivo. The following applies: inhibition of HIV RNA and protein expression in HIV-1 transgenic mice.
Excerpt: as §1
Heterozygous transgenic mothers were treated with the hCG preparation subcutaneously twice weekly. Pups received hCG via the mother's milk.
Gene expression was assayed in total RNA extracted from the skin of Tg26 mice with RNAzol. One microgram of RNA was reverse transcribed into cDNA using random hexamer primers and […] reverse transcriptase (Life Technologies, MD) in a final volume of 30 μl. One tenth of the cDNA reactions were used for PCR amplification of various HIV gene sequences (env, tat, rev, nef and vif). In addition, glyceraldehyde 3-phosphate dehydrogenase (GAPHD) mRNA was amplified for each sample for normalization. […] Detection was performed by chemiluminescence (Amersham) and relative mRNA levels determined by densitometry after normalization with GAPDH mRNA levels. […]

Assay [3] concerns Kaposi's Sarcoma induced in mice. The experiment in a line: Kaposi's Sarcoma tumors induced in mice by KS Y-1 cells. In kind it is in vivo. The note with it: inhibition of Kaposi's Sarcoma induced in mice. As to the method: The effects of the peptides on KS tumor cells were also evaluated in vivo in the KS mouse model. To induce KS tumors in the mice, 1×10^6/ml KS Y-1 cells in 50 μl PBS or saline were injected subcutaneously into immunodeficient mice (beige-XID-BNX mice). […] Methods for detection of apoptosis (from tissue biopsies) were used, as described in Lunardi-Iskandar et al.(1995, Nature 375:64-68). Briefly, the samples were stained in situ for the presence of cells with DNA fragmentation. Tissue slides from formalin-fixed tumors were treated with terminal deoxynucleotide transferase for extension of DNA ends (hydroxyl 3′) and incorporation of digoxigenin-11-dUTP according to the manufacturer's instructions (Oncor, Gaithersburg, Md.). Anti-digoxigenin antibody conjugated with the enzyme peroxidase allowed detection of apoptotic cells, which stain brown, whereas viable cells stain blue.
Certain fractions were tested for activity in reducing Kaposi's Sarcoma lesions in the Kaposi's Sarcoma mouse model as described herein. In this assay, starting one week after injection of the KS Y-1 cells to induce Kaposi's sarcoma formation, the mice were injected subcutaneously with 100 IU hCG. […] After one week of the week of treatment with the hCG fractions, the KS lesions were examined for cell apoptosis and regression as described herein. […]

B1: rβhCG: recombinant β subunit expressed in mouse cells (Sigma) (protein, UniProt P0DN86 21-165, looked up)
Choriogonadotropin subunit …: SKEPLRPRCRPINATLAVEKEGCPVCITVNTTICAGYCPTMTRVLQGVLPALPQVVCNYRDVRFESIRLPGCPRGVNPVVSYAVALSCQCALCRRSTTDCGGPKDHPLTCDDPRFQDSSSSKAPPPSLPSPSRLPGPSDTPILPQ
As to B1, in assay [1], the “Pro-hematopoiesis in vitro Enhancement” value is “− (“−” represents less than 10% effect)”. Also, in the assay on HIV-1, the “inhibition of HIV-1 infection/replication in vitro (in words)” value is on record as “not to be active” and the “HIV in vitro Inhibition” value is on record as “− (“−” represents less than 10% effect)”. For the same molecule, the KS in vitro entry in the assay on KS Y-1 and KS-SLK cells is reported as “− (“−” represents less than 10% effect)”. Besides, the “survival at 10 days after birth” value in the assay with HIV-1 transgenic mice is recorded as “failed to promote survival”. Further, the “inhibition of HIV RNA and protein expression” value in assay [2] is “− (“−” represents less than 10% effect)”. Also, the KS in vivo entry in assay [3] is recorded as “− (“−” represents less than 10% effect)”.

B2: βhCG: purified native β subunit of hCG (Sigma) (protein, UniProt P0DN86 21-165, looked up)
Choriogonadotropin subunit …: SKEPLRPRCRPINATLAVEKEGCPVCITVNTTICAGYCPTMTRVLQGVLPALPQVVCNYRDVRFESIRLPGCPRGVNPVVSYAVALSCQCALCRRSTTDCGGPKDHPLTCDDPRFQDSSSSKAPPPSLPSPSRLPGPSDTPILPQ
modifications: native beta subunit only
Consider B2, for which the “promotion of hematopoiesis (in words)” value is “pro-hematopoietic activity” in assay [1] (listed as native β-hCG) and “directly promoted” in assay [1] (listed as partially purified native β-chain). Also, the “Pro-hematopoiesis in vitro Enhancement” value in assay [1] is given as “++ (“++” represents greater than 40% effect)”. Also, the “inhibition of HIV-1 infection/replication in vitro (in words)” value with HIV-1 was “active”. In addition, the “HIV in vitro Inhibition” value with HIV-1 is “++ (“++” represents greater than 40% effect)”. Also, the “inhibition of KS cell growth in clonogenic assays (in words)” value in the assay on KS Y-1 and KS-SLK cells (KS Y-1 and KS SLK) is listed as “moderately well”. In addition, the KS in vitro entry in the assay with KS Y-1 and KS-SLK cells is reported as “++ (“++” represents greater than 40% effect)”. Further, the “survival at 10 days after birth” value in the assay with HIV-1 transgenic mice is recorded as “promote survival”. The “inhibition of HIV RNA and protein expression” value in assay [2] was “++ (“++” represents greater than 40% effect)”. Also, in assay [3], the KS in vivo result is listed as “++ (“++” represents greater than 40% effect)”.

The values above are taken from patent US6699834B1, “Method for treating cancer” (University of Maryland Biotechnology Institute, priority 1997, dated 2004).
